Results from PMC12636044, “Membrane binding of a cyanobacterial ESCRT‐III protein crucially involves the helix α1‐3 hairpin conserved in all superfamily members” (Protein Science : A Publication of the Protein Society, 2025).

What was measured:
[1] = target: the molecule itself; assay: cross-linking; BS3 (285 μM), 5.7 μM protein incubated 2 h with DOPG liposomes of increasing concentrations, 25°C, SDS-PAGE; self-association
[2] = target: the molecule itself; assay: SEC; Superose 12 10/300, 20 mM HEPES, 100 mM NaCl, pH 7.6, 7°C, 0.5 mL/min; self-association of the purified variant

Row | Protein | binding result [1] | binding result [2]
1 | IM30 α1-3 (domain or fragment, Synechocystis, UniProt Q55707 26-156, looked up, IM30 (Vipp1) of Synechocystis, helical hairpin α1-3, residues 26-156 (printed for the α1-3 fragment in the simulation); calculated mass about 17.5 kDa; also called IM30 αH1-3; α1-3 helical hairpin; not shown: His10, N-terminal, kept) EKVLEQAVIDMQEDLVQLRQAVARTIAEEKRTEQRLNQDTQEAKKWEDRAKLALTNGEENLAREALARKKSLTDTAAAYQTQLAQQRTMSENLRRNLAALEAKISEAKTKKNMLQARAKAAKANAELQQTL | binds | 
2 | IM30 wt (inner membrane-associated protein of 30 kDa) (natural protein, Synechocystis, UniProt Q55707 1-267, looked up, IM30 (Vipp1) of Synechocystis, full-length wild type; calculated MW 31.7 kDa with tag; Forms homo-oligomeric barrels and rods of several MDa; the number of subunits was not measured here; also called wt IM30; Vipp1) MGLFDRLGRVVRANLNDLVSKAEDPEKVLEQAVIDMQEDLVQLRQAVARTIAEEKRTEQRLNQDTQEAKKWEDRAKLALTNGEENLAREALARKKSLTDTAAAYQTQLAQQRTMSENLRRNLAALEAKISEAKTKKNMLQARAKAAKANAELQQTLGGLGTSSATSAFERMENKVLDMEATSQAAGELAGFGIENQFAQLEASSGVEDELAALKASMAGGALPGTSAATPQLEAAPVDSSVPANNASQDDAVIDQELDDLRRRLNNL |  | binds
